Experimental data from publication PMC2189805.

Molecular target: SETα (human (endogenous in HeLa)) (UniProt Q01105)
Assay: co-IP

UniProt Q01105, sequence (Q01105 2-290): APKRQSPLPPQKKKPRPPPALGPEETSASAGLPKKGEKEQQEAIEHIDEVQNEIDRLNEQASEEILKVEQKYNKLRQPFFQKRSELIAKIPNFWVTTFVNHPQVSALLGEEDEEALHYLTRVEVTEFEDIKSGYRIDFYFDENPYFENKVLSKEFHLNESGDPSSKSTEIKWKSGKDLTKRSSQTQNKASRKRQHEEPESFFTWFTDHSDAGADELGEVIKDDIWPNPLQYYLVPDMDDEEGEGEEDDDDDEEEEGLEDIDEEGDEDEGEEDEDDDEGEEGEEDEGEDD

percent of total cellular HuR bound: 5%
Substance: HuR (endogenous) (from UniProt Q15717 1-326) (natural protein)
